Measurements reported in article PMC9477748, “Organizing structural principles of the IL-17 ligand–receptor axis” (Nature, 2022).

Assays:
[1] = target: site-specifically biotinylated IL-17RB, immobilized (human) (UniProt Q9NRM6); experiment: SPR; Biacore T100; about 300 RU of site-specifically biotinylated IL-17RB immobilized on a Series S Sensor Chip SA; regeneration 2 M MgCl2; steady-state affinity analysis
[2] = target: T1, IL-17RB (18-502) fused to the ALFA-tag, on HeLa cells (human) (UniProt Q9NRM6)
T1 sequence: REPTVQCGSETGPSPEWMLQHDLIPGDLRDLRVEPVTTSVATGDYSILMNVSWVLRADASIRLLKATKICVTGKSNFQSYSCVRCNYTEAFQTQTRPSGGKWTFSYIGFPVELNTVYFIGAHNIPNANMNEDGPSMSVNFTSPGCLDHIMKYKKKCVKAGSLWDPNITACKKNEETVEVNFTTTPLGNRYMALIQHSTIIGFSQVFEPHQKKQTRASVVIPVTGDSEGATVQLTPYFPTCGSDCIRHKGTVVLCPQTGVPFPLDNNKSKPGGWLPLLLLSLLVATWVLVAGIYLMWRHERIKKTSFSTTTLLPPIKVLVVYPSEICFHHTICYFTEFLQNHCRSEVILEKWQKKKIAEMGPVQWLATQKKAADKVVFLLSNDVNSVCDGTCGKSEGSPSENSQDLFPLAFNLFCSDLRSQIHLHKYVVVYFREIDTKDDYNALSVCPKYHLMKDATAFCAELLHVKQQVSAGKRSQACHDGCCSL

[3] = target: T2, IL-17RB (1-288) (human, UniProt Q9NRM6 18-288); experiment: cryo-EM structure; IL-25 and IL-17RB co-expressed in Expi293F GnTI- cells and co-purified; 2:2 complex (3.18 Å) and higher-order 6:6 complex (4.39 Å) from one sample; HBS 20/150 pH 7.4; conditions: both partners purified
T2 construct: signal peptide in the construct; IL-17 receptor B (IL-17RB), human, amino acids 1-288; Two constructs are named (C-terminal 3C-proteinC-8xHis in pVLAD6; C-terminal Avitag-6xHis in pD649); also called IL-17 receptor B; apo-IL-17RB
T2 sequence (looked up): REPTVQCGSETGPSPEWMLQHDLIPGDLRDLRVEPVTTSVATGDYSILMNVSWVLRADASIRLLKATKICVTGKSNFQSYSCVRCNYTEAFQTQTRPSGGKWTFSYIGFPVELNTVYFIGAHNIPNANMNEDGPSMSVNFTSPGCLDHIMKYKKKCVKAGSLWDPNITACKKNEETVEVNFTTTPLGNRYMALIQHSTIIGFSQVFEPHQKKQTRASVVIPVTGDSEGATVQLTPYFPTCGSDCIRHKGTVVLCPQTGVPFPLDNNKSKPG

Molecule “IL-17RA (1-317) (from UniProt Q96F46 33-317) (receptor)” has a Kd [1] of 13.8 µM.

B1: IL-25 Y92A (ligand)
chain: THTYSHWPSCCPSKGQDTSEELLRWSTVPVPPLEPARPNRHPESCRASEDGPLNSRAISPWRAELDRDLNRLPQDLYHARCLCPHCVSLQTGSHMDPRGNSELLYHNQTVFYRRPCHGEKGTHKGYCLERRLYRVSLACVCVRPRVMG
With B1 the NF-κB reporter (SEAP) HEK293 cells expressing IL-17RA, ACT1 and endogenous IL-17RB, varying concentrations of IL-25 mutant: EC50 shift relative to WT IL-25 [2] was > 3 log-fold.

B2: IL-25 (amino acids 30-177) (ligand, human, UniProt Q9H293 30-177, looked up)
chain: THTYSHWPSCCPSKGQDTSEELLRWSTVPVPPLEPARPNRHPESCRASEDGPLNSRAISPWRYELDRDLNRLPQDLYHARCLCPHCVSLQTGSHMDPRGNSELLYHNQTVFYRRPCHGEKGTHKGYCLERRLYRVSLACVCVRPRVMG
notes: IL-25 (IL-17E), human, amino acids 30-177; Two constructs are named (Igk signal peptide with C-terminal 3C-cleavable Avitag-6xHis in pEG BacMam; HA signal peptide with C-terminal Avitag-6xHis in a lentiviral vector); also called IL-17E; WT IL-25
B2: binds [3].
